Source: publication PMC9618068

Columns and labels:
[1] = molecular target: actin (ATP-G-actin from chicken skeletal muscle) (chicken) (UniProt P68139)
[2] = molecular target: actin (ATP-G-actin from chicken skeletal muscle) (chicken) (UniProt P68139); test: ITC

## F1^15-160, an N-terminally truncated version of F1 that lacks Asn13 (domain or fragment)
[1]
  Pi released from actin in the presence of F1^15-160, compared to F1A: 25%

## fragmin domain-1 (F1) (residues 1 to 160) (domain or fragment)
[2]
  stoichiometry N: 0.956
